# Test system: Escherichia coli TOP10
# Assay: shrunken log2 fold change of peptide-encoding DNA abundance (4.5 h post-induction vs induction); higher = less antimicrobial activity (less host growth inhibition)
# Details: time post-induction: 4.5 h; library: site-saturation at positions 5, 18, 19, 20
# 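Also: peptides expressed intracellularly from a pBAD plasmid library in pooled LB shake-flask culture, induced with 0.3% L-arabinose, DNA abundance read by NGS, three biological replicates, DESeq2 with apeglm shrinkage.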
row,Sequence,shrunken log2 fold change
1,RRIRMRPPRLPRPRPRPVHPPRP,0.127
2,RRIRGRPPRLPRPRPRPAGEPRP,0.479
3,RRIRQRPPRLPRPRPRPFWYPRP,-0.171
4,RRIRKRPPRLPRPRPRPLYGPRP,-0.289
5,RRIRERPPRLPRPRPRPEKDPRP,-0.137
6,RRIRNRPPRLPRPRPRPLHSPRP,-0.16
7,RRIRFRPPRLPRPRPRPDDIPRP,-0.0253
8,RRIRDRPPRLPRPRPRPKCFPRP,0.0766
9,RRIRMRPPRLPRPRPRPVNTPRP,0.0779
10,RRIRTRPPRLPRPRPRPFGKPRP,-0.00963
11,RRIRKRPPRLPRPRPRPQYIPRP,0.102
12,RRIRLRPPRLPRPRPRPYHVPRP,-1.29
13,RRIRSRPPRLPRPRPRPPKQPRP,-0.215
14,RRIRDRPPRLPRPRPRPAKQPRP,0.181
15,RRIRPRPPRLPRPRPRPTRCPRP,0.279
16,RRIRPRPPRLPRPRPRPTTPPRP,0.322
17,RRIRDRPPRLPRPRPRPGWSPRP,0.104
18,RRIRSRPPRLPRPRPRPVYMPRP,-0.461
19,RRIRYRPPRLPRPRPRPMPLPRP,-0.398
20,RRIRTRPPRLPRPRPRPCMRPRP,-0.0225
21,RRIRFRPPRLPRPRPRPMTHPRP,-0.401
22,RRIRGRPPRLPRPRPRPDHGPRP,-0.0602

row,Sequence,shrunken log2 fold change
1,RRIRRRPPRLPRPRPRPMGCPRP,-0.0336
2,RRIRCRPPRLPRPRPRPAFFPRP,0.0268
3,RRIRNRPPRLPRPRPRPMVTPRP,-0.157
4,RRIRIRPPRLPRPRPRPTILPRP,-0.248
5,RRIRARPPRLPRPRPRPMMQPRP,0.185
6,RRIRARPPRLPRPRPRPFVPPRP,-0.0963
7,RRIRLRPPRLPRPRPRPLVIPRP,-0.33
8,RRIRVRPPRLPRPRPRPMKDPRP,-0.109
9,RRIRERPPRLPRPRPRPWGFPRP,0.0221
10,RRIRDRPPRLPRPRPRPSPAPRP,0.0515
11,RRIRDRPPRLPRPRPRPKWFPRP,-0.0316
12,RRIRYRPPRLPRPRPRPLCFPRP,-0.727
13,RRIRCRPPRLPRPRPRPNQCPRP,2.64
14,RRIRERPPRLPRPRPRPKVMPRP,0.0306
15,RRIRTRPPRLPRPRPRPPAYPRP,-0.0816
16,RRIRHRPPRLPRPRPRPHKMPRP,-0.266
17,RRIRERPPRLPRPRPRPSIHPRP,-0.147
18,RRIRRRPPRLPRPRPRPCHEPRP,-0.0891
19,RRIRYRPPRLPRPRPRPVKTPRP,-0.0365
20,RRIRMRPPRLPRPRPRPIRSPRP,-0.0819
21,RRIRDRPPRLPRPRPRPLTDPRP,0.0638
22,RRIRNRPPRLPRPRPRPWQFPRP,-0.0175

row,Sequence,shrunken log2 fold change
1,RRIRWRPPRLPRPRPRPKRSPRP,0.08
2,RRIRWRPPRLPRPRPRPDGEPRP,0.0237
3,RRIRWRPPRLPRPRPRPKRKPRP,0.502
4,RRIRKRPPRLPRPRPRPSPDPRP,0.344
5,RRIRQRPPRLPRPRPRPGMMPRP,-0.0714
6,RRIRNRPPRLPRPRPRPYTNPRP,-0.424
7,RRIRRRPPRLPRPRPRPDDPPRP,-0.0033
8,RRIRLRPPRLPRPRPRPGGRPRP,-0.0451
9,RRIRKRPPRLPRPRPRPVKSPRP,0.155
10,RRIRVRPPRLPRPRPRPEHVPRP,0.0447
11,RRIRDRPPRLPRPRPRPQPFPRP,-0.0264
12,RRIRKRPPRLPRPRPRPDYSPRP,-0.168
13,RRIRTRPPRLPRPRPRPDGEPRP,0.0799
14,RRIRMRPPRLPRPRPRPQISPRP,-0.28
15,RRIRRRPPRLPRPRPRPCGDPRP,0.478
16,RRIRHRPPRLPRPRPRPMDQPRP,-0.0412
17,RRIRKRPPRLPRPRPRPRPLPRP,0.73
18,RRIRQRPPRLPRPRPRPGVFPRP,0.0582
19,RRIRVRPPRLPRPRPRPGWKPRP,0.169
20,RRIRPRPPRLPRPRPRPYCSPRP,-0.294
21,RRIRHRPPRLPRPRPRPLNAPRP,-0.0576
22,RRIRIRPPRLPRPRPRPHGPPRP,0.0659

row,Sequence,shrunken log2 fold change
1,RRIRNRPPRLPRPRPRPMQTPRP,-0.00987
2,RRIRFRPPRLPRPRPRPEFYPRP,0.0551
3,RRIRFRPPRLPRPRPRPKRLPRP,0.0144
4,RRIRCRPPRLPRPRPRPSKFPRP,-0.17
5,RRIRVRPPRLPRPRPRPSIYPRP,-0.482
6,RRIRIRPPRLPRPRPRPRCQPRP,0.00087
7,RRIRKRPPRLPRPRPRPFLTPRP,-0.206
8,RRIRLRPPRLPRPRPRPMEVPRP,-0.0152
9,RRIRRRPPRLPRPRPRPLQNPRP,0.045
10,RRIRSRPPRLPRPRPRPQAPPRP,0.142
11,RRIRERPPRLPRPRPRPGCMPRP,-0.00389
12,RRIRMRPPRLPRPRPRPFRLPRP,-0.1
13,RRIRNRPPRLPRPRPRPIQMPRP,-0.0365
14,RRIRVRPPRLPRPRPRPWRKPRP,0.0283
15,RRIRYRPPRLPRPRPRPWQHPRP,-0.185
16,RRIRVRPPRLPRPRPRPNWIPRP,-0.29
17,RRIRSRPPRLPRPRPRPADQPRP,0.58
18,RRIRARPPRLPRPRPRPCINPRP,-0.353
19,RRIRLRPPRLPRPRPRPVQPPRP,0.653
20,RRIRCRPPRLPRPRPRPWDYPRP,0.00188
21,RRIRTRPPRLPRPRPRPQLWPRP,-0.13
22,RRIRIRPPRLPRPRPRPQDLPRP,-0.527

row,Sequence,shrunken log2 fold change
1,RRIRFRPPRLPRPRPRPSYMPRP,-1.21
2,RRIRLRPPRLPRPRPRPLMPPRP,-0.0944
3,RRIRVRPPRLPRPRPRPIGFPRP,0.187
4,RRIRFRPPRLPRPRPRPCSEPRP,0.0135
5,RRIRGRPPRLPRPRPRPRRVPRP,0.485
6,RRIRDRPPRLPRPRPRPTGTPRP,0.0829
7,RRIRERPPRLPRPRPRPLMGPRP,0.247
8,RRIRERPPRLPRPRPRPQCGPRP,-0.43
9,RRIRLRPPRLPRPRPRPPVAPRP,0.387
10,RRIRPRPPRLPRPRPRPEQDPRP,0.0894
11,RRIRARPPRLPRPRPRPSGTPRP,-0.0328
12,RRIRSRPPRLPRPRPRPIHCPRP,-0.452
13,RRIRHRPPRLPRPRPRPFCFPRP,-0.215
14,RRIRMRPPRLPRPRPRPCKDPRP,-0.0302
15,RRIRYRPPRLPRPRPRPFKAPRP,-0.55
16,RRIRNRPPRLPRPRPRPTVMPRP,0.178
17,RRIRHRPPRLPRPRPRPGKMPRP,-0.423
18,RRIRCRPPRLPRPRPRPCTSPRP,-0.647
19,RRIRTRPPRLPRPRPRPGMYPRP,-0.3
20,RRIRTRPPRLPRPRPRPCNLPRP,-0.00247
21,RRIRWRPPRLPRPRPRPLHIPRP,-0.465

# Reference: the supplement of paper PMC9112550, “Optimization of the antimicrobial peptide Bac7 by deep mutational scanning” (BMC Biology, 2022)
